Test results as given in CN114028562A (JIANGSU QYUNS BIOMEDICAL CO LTD, dated 2022).
Each block holds one binder with its values, some of them ahead of it.

Assays:
[1] = biological target: T1, 人胸腺基质淋巴细胞生成素(Human Thymic Stromal Lymphopoietin, TSLP) (human, UniProt Q969D9 29-159); assay: cell-based or functional assay
[2] = biological target: 食蟹猴TSLP (cynomolgus monkey, UniProt A0A7N9CAT7 29-159); assay: cell-based or functional assay
[3] = biological target: T1, 人胸腺基质淋巴细胞生成素(Human Thymic Stromal …); assay: SPR, Biacore T200, 25°C, antibody captured on Protein A chip, TSLP as analyte, 1:1 model, mean of three runs

食蟹猴TSLP, sequence (A0A7N9CAT7 entry or part of it): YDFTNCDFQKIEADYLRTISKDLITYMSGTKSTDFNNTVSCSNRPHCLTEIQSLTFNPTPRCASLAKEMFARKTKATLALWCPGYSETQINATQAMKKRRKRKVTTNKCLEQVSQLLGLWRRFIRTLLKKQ

IC50, inhibition of human TSLP-induced STAT5 phosphorylation in SW756-STAT5-Luciferase reporter cells [1]: 0.837 ng/mL | IC50, inhibition of human TSLP-induced TARC(CCL17) release from human PBMC [1]: 77.1 ng/mL | IC50, inhibition of human TSLP-induced TARC(CCL17) release from human whole blood [1]: 0.839 ng/mL | IC50, inhibition of cynomolgus TSLP-induced STAT5 phosphorylation in SW756-STAT5-Luciferase reporter cells [2]: 0.889 ng/mL | Kd [3]: 0.0175 nM | koff [3]: 2.99e-05 s⁻¹ | kon [3]: 1.74e+06 M⁻¹ s⁻¹
B1: QX008N(HZD8G2-57) (antibody, V domains shown)
VH: EVQLVESGGGLVQPGGSLRLSCAASGFSLSSYYMSWVRQAPGKGLEWVGFISYGGSAYHATWAQGRFTISKDNSKNTLYLQMNSLRAEDTAVYYCAREFRSMTYGAEWGIWGQGTLVTVSS
VL: AYQMTQSPSSVSASVGDRVTITCQASESIYDTLAWYQQKPGKAPKLLIYSASSLASGVPSRFSGSGSGTDFTLTISSLQPEDFATYYCQQGYTMPDVDKNPFGGGTKVEIKR

IC50, inhibition of cynomolgus TSLP-induced STAT5 phosphorylation in SW756-STAT5-Luciferase reporter cells [2]: 1.88 ng/mL
B2: Tezepelumab (antibody, V domains shown)
VH: QMQLVESGGGVVQPGRSLRLSCAASGFTFRTYGMHWVRQAPGKGLEWVAVIWYDGSNKHYADSVKGRFTITRDNSKNTLNLQMNSLRAEDTAVYYCARAPQWELVHEAFDIWGQGTMVTVSS
VL: SYVLTQPPSVSVAPGQTARITCGGNNLGSKSVHWYQQKPGQAPVLVVYDDSDRPSWIPERFSGSNSGNTATLTISRGEAGDEADYYCQVWDSSSDHVVFGGGTKLTVLG
